According to article PMC11721587, “Morphogen-induced kinase condensates transduce Hh signal by allosterically activating Gli” (Science Advances, 2025):

What was measured:
[1] = target: the molecule itself; experiment: co-sedimentation; sedimentation assay of HEK293T cells overexpressing Ulk3-HA constructs; S100 soluble, P100 condensates
[2] = target: the molecule itself; experiment: SDS-PAGE and immunoblot (SDS-resistant dimer); SDS-resistant ~250 Kd Fu dimer ('mature Fu') in extracts of cells (Cl8 with Hh-conditioned medium, S2, Sf9, wing discs); tells nothing of SDS-labile association

| Protein | binding result [1] | stoichiometry N [2] |
| --- | --- | --- |
| Ulk3-HA^WT (in HEK293T) (enzyme, mouse, UniProt Q3U3Q1 1-472, looked up, SUMO-conjugated form enriched in the condensates (P100), source: HEK293T, transfected, overexpressed; in lysate fractions (S100, P100); purified from HEK293T for in vitro maturation; not shown: 3x HA, C-terminal, kept) MAGPSWGLPRLDGFILTERLGSGTYATVYKAYAKKDTREVVAIKCVAKKSLNKASVENLLTEIEILKGIRHPHIVQLKDFQWDNDNIYLIMEFCAGGDLSRFIHTRRILPEKVARVFMQQLASALQFLHERNISHLDLKPQNILLSSLEKPHLKLADFGFAQHMSPWDEKHVLRGSPLYMAPEMVCRRQYDARVDLWSVGVILYEALFGQPPFASRSFSELEEKIRSNRVIELPLRPQLSLDCRDLLQRLLERDPARRISFKDFFAHPWVDLEHMPSGESLAQARALVVEAVKKDQEGDAAAALSLYCKALDFFVPALHYEVDAQRKEAIKAKVGQYVSRAEELKAIVSSSNQALLRQGTTVQELLREMARDKPRLLAALEVASAALAKEEEAGKEQDALDLYQHSLGELLVLLAAEAPGRRRELLHTEVQNLMARAEYLKEQIKIRESHWEAESLDKEGLSESVRSSCTLQ | binds |  |
| Flag-Fu^EE (enzyme, SUMOylated in Sf9 cells (condensate fraction)) MNRYAVSSLVGQGSFGCVYKATRKDDSKVVAIKVISKRGRATKELKNLRRECDIQARLKHPHVIEMIESFESKTDLFVVTEFALMDLHRYLSYNGAMGEEPARRVTGHLVSALYYLHSNRILHRDLKPQNVLLDKNMHAKLCDFGLARNMELGEHVLTSIKGTPLYMAPELLAEQPYDHHADMWSLGCIAYESMAGQPPFCASSILHLVKMIKHEDVKWPSTLTSECRSFLQGLLEKDPGLRISWTQLLCHPFVEGRIFIAETQAEAAKESPFTNPEAKVKSSKQSDPEVGDLDEALAALDFGESRQENLTTSRDSINAIAPSDVEHLETDVEDNMQRVVVPFADLSYRDLSGVRAMPMVHQPVINSHTCFVSGNSNMILNHMNDNFDFQASLRGGGVAAKPIVAPTVRQSRSKDLEKRKLSQNLDNFSVRLGHSVDHEAQRKATEIATQEKHNQENKPPAEAISYANSQPPQQQPQQLKHSMHSTNEEKLSSDNTPPCLLPGWDSCDESQSPPIENDEWLAFLNRSVQELLDGELDSLKQHNLVSIIVAPLRNSKAIPRVLKSVAQLLSLPFVLVDPVLIVDLELIRNVYVDVKLVPNLMYACKLLLSHKQLSDSAASAPLTTGSLSRTLRSIPELTVEELETACSLYELVCHLVHLQQQFLTQFCDAVAILAASDLFLNFLTHDFRQSDSDAASVRLAGCMLALMGCVLRELPENAELVERIVFNPRLNFVSLLQSRHHLLRQRSCQLLRLLARFSLRGVQRIWNGELRFALQQLSEHHSYPALRGEAAQTLDEISHFTFFVT |  | 2 |
| fused (Fu) (enzyme, Drosophila (endogenous in Cl8), UniProt P23647 1-805, looked up, Fu Ser/Thr kinase, Drosophila, endogenous in Cl8 cells; After Hh it is phosphorylated (T158/S159, S482) and SUMO-conjugated; the SDS-resistant dimer is called mature Fu; also called endogenous Fu; mature Fu; source: endogenous, Cl8 cells (fractions, lysates)) MNRYAVSSLVGQGSFGCVYKATRKDDSKVVAIKVISKRGRATKELKNLRRECDIQARLKHPHVIEMIESFESKTDLFVVTEFALMDLHRYLSYNGAMGEEPARRVTGHLVSALYYLHSNRILHRDLKPQNVLLDKNMHAKLCDFGLARNMTLGTHVLTSIKGTPLYMAPELLAEQPYDHHADMWSLGCIAYESMAGQPPFCASSILHLVKMIKHEDVKWPSTLTSECRSFLQGLLEKDPGLRISWTQLLCHPFVEGRIFIAETQAEAAKESPFTNPEAKVKSSKQSDPEVGDLDEALAALDFGESRQENLTTSRDSINAIAPSDVEHLETDVEDNMQRVVVPFADLSYRDLSGVRAMPMVHQPVINSHTCFVSGNSNMILNHMNDNFDFQASLRGGGVAAKPIVAPTVRQSRSKDLEKRKLSQNLDNFSVRLGHSVDHEAQRKATEIATQEKHNQENKPPAEAISYANSQPPQQQPQQLKHSMHSTNEEKLSSDNTPPCLLPGWDSCDESQSPPIENDEWLAFLNRSVQELLDGELDSLKQHNLVSIIVAPLRNSKAIPRVLKSVAQLLSLPFVLVDPVLIVDLELIRNVYVDVKLVPNLMYACKLLLSHKQLSDSAASAPLTTGSLSRTLRSIPELTVEELETACSLYELVCHLVHLQQQFLTQFCDAVAILAASDLFLNFLTHDFRQSDSDAASVRLAGCMLALMGCVLRELPENAELVERIVFNPRLNFVSLLQSRHHLLRQRSCQLLRLLARFSLRGVQRIWNGELRFALQQLSEHHSYPALRGEAAQTLDEISHFTFFVT |  | 2 |
